Experimental data from publication PMC3758794 (Cell biochemistry and biophysics, 2013).
Each block holds one molecule with its values, some of them ahead of it.

How the values were obtained:
[1] = biological target: UBE2W-WT (human) (UniProt Q96B02); test: SEC
[2] = biological target: the molecule itself; test: SEC

stoichiometry N [1]: 2
Molecule: UBE2W-WT (from UniProt Q96B02 1-151) (enzyme)

B1: UBE2W-131Δ (truncation following Y131) (domain or fragment, human, UniProt Q96B02 1-131, looked up)
chain: MASMQKRLQKELLALQNDPPPGMTLNEKSVQNSITQWIVDMEGAPGTLYEGEKFQLLFKFSSRYPFDSPQVMFTGENIPVHPHVYSNGHICLSILTEDWSPALSVQSVCLSIISMLSSCKEKRRPPDNSFY
stoichiometry N [2]: 2
